Data: patent US20220144960A1 (NANJING LEGEND BIOTECH, published 2022)
Residue numbers refer to the chain shown, from its start.

B1: 5F11 scFv (scFv)
scFv: DIQMTQSPTSLSASVGDRVTITCRASQGISSWLTWYQQKPEKAPKSLIYAASSLQSGVPSRFSGSGSGTDFTLTISSLQPEDFATYYCQQYDSYPITFGQGTRLEIKGSTSGSGKPGSGEGSTKGQVQLQQWGAGLLKPSETLSLTCAVYGGSFSAYYWSWIRQPPGKGLEWIGDINHGGGTNYNPSLKSRVTISVDTSKNQFSLKLNSVTAADTAVYYCASLTAYWGQGSLVTVSS
notes: Positive control; captured like the other fragments, tag not spelled out for it
B2: AS57765 human Fab (Fab, V domains shown)
VH: EVQLVESGGGLVQPGGSLRLSCAASGFNIYYSYMHWVRQAPGKGLEWVAYIYPYSGSTSYADSVKGRFTISADTSKNTAYLQMNSLRAEDTAVYYCARPAVHWHGYGGGYYYGLDYWGQGTLVTVSS
VL: DIQMTQSPSSLSASVGDRVTITCRASQSVSSAVAWYQQKPGKAPKLLIYSASSLYSGVPSRFSGSRSGTDFTLTISSLQPEDFATYYCQQAYYSLITFGQGTKVEIK
notes: Human Fab from a synthetic human Fab library, crude protein from E. coli with 6xHistidine tag
B3: AS53445 sdAb (VHH)
VHH: QVQLVESGGGSVQAGGSLRLSCTASGYIFCMGWFRQAPGKAREGIATIYTGGDSTYYDDSVKGRFTISRDNAKNTVYLQMNSLKPEDTAMYYCAAGGQECYLTNWVSYWGQGTQVTVSS
notes: Camel sdAb
B4: AS57911 human Fab (Fab, V domains shown)
VH: EVQLVESGGGLVQPGGSLRLSCAASGFNISSSYIHWVRQAPGKGLEWVAYISSYYSYTYYADSVKGRFTISADTSKNTAYLQMNSLRAEDTAVYYCARGYPYGMDYWGQGTLVTVSS
VL: DIQMTQSPSSLSASVGDRVTITCRASQSVSSAVAWYQQKPGKAPKLLIYSASSLYSGVPSRFSGSRSGTDFTLTISSLQPEDFATYYCQQSHALITFGQGTKVEIK
notes: as for B2
B5: AS57659 human Fab (Fab, V domains shown)
VH: EVQLVESGGGLVQPGGSLRLSCAASGFNIYSYYIHWVRQAPGKGLEWVASIYSSYSSTYYADSVKGRFTISADTSKNTAYLQMNSLRAEDTAVYYCARSWFSYPGLDYWGQGTLVTVSS
VL: B4 VL with S91P, H92Y, A93Y
notes: as for B2
B6: AS53574 sdAb (VHH)
VHH: QVKLVESGGGSVQAGGSLRLSCAASGYIYSSNCMGWFRQAPGKEREWVARIHTGSGSTYYADSVKGRFTISQDNAKNTVYLQMNSLRPEDTAMYDCAAGRVVLGAVVCTNEYWGQGTQVTVSS
notes: Camel sdAb

Tests used:
[1] = molecular target: T1, recombinant human CD30 extra cellular domain (ECD) protein (human, UniProt P28908 19-379); experiment: SPR Biacore T200, scFv captured, 100.0 nM human CD30 as analyte, single curve
T1 construct: Bought from R&D systems; also called rhCD30; human CD30 ECD
T1 sequence: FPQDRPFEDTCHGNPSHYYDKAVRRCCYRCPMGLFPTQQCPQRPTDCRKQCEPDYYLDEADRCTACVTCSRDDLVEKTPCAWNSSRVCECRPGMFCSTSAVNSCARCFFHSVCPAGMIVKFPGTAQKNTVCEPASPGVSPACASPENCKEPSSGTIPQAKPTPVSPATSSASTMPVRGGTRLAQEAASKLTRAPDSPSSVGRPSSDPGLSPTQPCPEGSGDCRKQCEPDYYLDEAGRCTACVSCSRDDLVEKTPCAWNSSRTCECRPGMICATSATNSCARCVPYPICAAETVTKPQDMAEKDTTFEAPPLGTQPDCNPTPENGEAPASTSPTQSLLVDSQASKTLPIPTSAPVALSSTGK
Procedure: (§1) Some of these unique binders were subjected to for further characterization by surface plasmon resonance (SPR) on a BIAcore T200 instrument (GE Healthcare). The experiment was carried out as follows. The crude sdAb/Fab proteins were captured through an affinity tag (6×Histidine tag) onto the sensorchip. High-concentration (100.0 nM) of human CD30 (R&D systems, Cat. #6126-CD) flowed over the sensorchip surface, and were allowed to bind the antibody fragments for 300 s followed by injection of the running buffer to allow dissociation of the complex. On-rate ([…] and off-rate (kd) were roughly calculated based on one association and dissociation curve, and were used to estimate the equilibrium dissociation constant (KD). 5F11 scFv (SEQ ID NO:216, prepared according to WO2017066122) was used as a positive control. Data were summarized in Table 3 below. The first 10 antibodies in Table 3 were sdAbs with amino acid sequence ID numbers summarized in Table 1, the last antibody was 5F11 scFv, and the remainings were human Fabs with CDR and scFv amino acid sequence ID numbers in Table 2.

[2] = molecular target: T1, recombinant human CD30 extra cellular …; experiment: SPR Biacore T200, scFv captured, 100.0 nM human CD30 as analyte, single curve; beyond off-rate detection limit
Procedure: as §1

[3] = molecular target: T2, human CD30 CRD6 (E282-K379) Fc fusion protein with human IgG1 Fc fragment at the C terminus (human); experiment: SPR, captured scFv, human IgG1 Fc-fused CRD protein as analyte
T2 construct: also called CRD6 construct
T2 sequence (chain, as listed by the source limits assumed): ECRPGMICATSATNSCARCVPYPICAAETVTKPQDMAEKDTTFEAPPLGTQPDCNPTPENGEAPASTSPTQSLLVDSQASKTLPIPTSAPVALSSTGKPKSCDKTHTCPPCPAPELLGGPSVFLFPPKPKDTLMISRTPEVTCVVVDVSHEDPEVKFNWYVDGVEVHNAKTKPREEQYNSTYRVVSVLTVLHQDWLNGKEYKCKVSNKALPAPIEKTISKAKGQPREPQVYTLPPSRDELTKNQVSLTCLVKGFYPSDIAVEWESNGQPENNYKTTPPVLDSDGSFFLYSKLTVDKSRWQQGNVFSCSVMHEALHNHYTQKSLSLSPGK
Procedure: as §1, with “2. […]” for “2.”

[4] = molecular target: T1, recombinant human CD30 extra cellular …; experiment: SPR Biacore T200, scFv captured, 100.0 nM human CD30 as analyte, single curve; remark: listed apart in the source
Procedure: as §1

[5] = molecular target: T1, recombinant human CD30 extra cellular …; experiment: SPR Biacore T200, His-tagged sdAb/Fab captured, 100.0 nM human CD30 as analyte, single curve
Procedure: as §1

[6] = molecular target: T3, rhesus CD30 ECD (rhesus, UniProt P28908 19-379 (human entry)); experiment: ELISA on rhesus CD30 ECD protein; member of the group by paragraph 437
T3 construct: Produced in house; also called recombinant rhesus CD30; rhesus CD30 protein
T3 chain: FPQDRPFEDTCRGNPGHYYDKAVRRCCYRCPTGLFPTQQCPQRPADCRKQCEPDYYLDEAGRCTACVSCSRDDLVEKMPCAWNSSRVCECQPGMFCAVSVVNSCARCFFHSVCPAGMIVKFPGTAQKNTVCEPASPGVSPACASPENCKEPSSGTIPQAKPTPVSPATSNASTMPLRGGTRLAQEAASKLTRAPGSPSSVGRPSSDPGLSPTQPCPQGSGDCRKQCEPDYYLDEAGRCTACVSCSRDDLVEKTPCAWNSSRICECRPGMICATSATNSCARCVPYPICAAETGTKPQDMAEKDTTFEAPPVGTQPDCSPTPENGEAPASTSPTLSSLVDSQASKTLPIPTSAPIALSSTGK

[7] = molecular target: T4, human CD30 CRD5 (R241-E282) Fc fusion protein with human IgG1 Fc fragment at the C terminus (human); experiment: SPR, captured Fab, Fc-fused CRD protein as analyte
T4 construct: also called CRD5 construct
Procedure: as §1
(§2) Cysteine rich domains (CRDs) of human CD30 and the flanking residues, i.e., CRD1 (F19-Q68, SEQ ID NO: 3), CRD2 (R66-E107, SEQ ID NO: 4), CRD3 (E107-5153, SEQ ID NO: 5), CRD4 (E150-Q243, SEQ ID NO: 6), CRD5 (R241-E282, SEQ ID NO: 7) and CRD6 (E282-K379, SEQ ID NO: 8), were produced as Fc fusion proteins with human IgG1 Fc fragment (SEQ ID NO: 217) at the C terminus and used for epitope determination using SPR following the protocol similar to what was described above, only the analytes used were human IgG1 Fc-fused CRD proteins.

[8] = molecular target: T2, human CD30 CRD6 (E282-K379) Fc fusion …; experiment: SPR, captured Fab, Fc-fused CRD protein as analyte
Procedure: as §1, §2

[9] = molecular target: T5, human CD30 CRD2 (R66-E107) Fc fusion protein with human IgG1 Fc fragment at the C terminus (human); experiment: SPR, captured Fab, Fc-fused CRD protein as analyte
T5 construct: also called CRD2 construct
Procedure: as §1, §2

[10] = molecular target: T6, human CD30 CRD3 (E107-S153) Fc fusion protein with human IgG1 Fc fragment at the C terminus (human); experiment: SPR, captured Fab, Fc-fused CRD protein as analyte
T6 construct: also called CRD3 construct
Procedure: as §1, §2

[11] = molecular target: T7, human CD30 CRD4 (E150-Q243) Fc fusion protein with human IgG1 Fc fragment at the C terminus (human); experiment: SPR, captured Fab, Fc-fused CRD protein as analyte
T7 construct: also called CRD4 construct
T7 sequence (chain, as listed by the source limits assumed): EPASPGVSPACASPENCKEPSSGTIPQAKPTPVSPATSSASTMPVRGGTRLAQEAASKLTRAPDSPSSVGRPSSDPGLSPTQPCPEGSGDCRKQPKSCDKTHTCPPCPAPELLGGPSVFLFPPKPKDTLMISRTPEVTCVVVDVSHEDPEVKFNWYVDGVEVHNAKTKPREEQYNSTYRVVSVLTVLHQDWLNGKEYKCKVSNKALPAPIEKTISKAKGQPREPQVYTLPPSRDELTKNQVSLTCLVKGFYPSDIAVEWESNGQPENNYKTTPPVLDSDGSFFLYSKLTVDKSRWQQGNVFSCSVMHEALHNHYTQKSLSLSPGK
Procedure: as §1, §2

[12] = molecular target: T8, human CD30 CRD1 (F19-Q68) Fc fusion protein with human IgG1 Fc fragment at the C terminus (human); experiment: SPR, captured Fab, Fc-fused CRD protein as analyte
T8 construct: also called CRD1 construct
Procedure: as §1, §2

[13] = molecular target: T8, human CD30 CRD1 (F19-Q68) Fc fusion …; experiment: ELISA on the CD30 fragment CRD1, absorbance OD 450 nm; sdAb concentration not given

| Binder | Kd [1] [nM] | koff [2] [s⁻¹] | binding result [3] | Kd [4] [nM] | kon [4] [M⁻¹ s⁻¹] | Kd [5] [nM] | koff [5] [s⁻¹] | kon [5] [M⁻¹ s⁻¹] | rhCD30 Binding (RU) [5] [RU] | binding result [6] | binding result [7] | binding result [8] | binding result [9] | binding result [10] | binding result [11] | binding result [12] | binding result [13] |
| --- | --- | --- | --- | --- | --- | --- | --- | --- | --- | --- | --- | --- | --- | --- | --- | --- | --- |
| B1 | < 0.1 | < 1e-05 | binds | < 0.0862 | 120000 |  |  |  |  |  |  |  |  |  |  |  |  |
| B2 |  |  |  |  |  | 11 | 0.0011 | 98000 | 37.7 | binds | no binding | no binding | no binding | no binding | no binding | no binding |  |
| B3 |  |  |  |  |  | 80 | 0.0085 | 110000 | 101 | binds |  |  |  |  |  |  | binds |
| B4 |  |  |  |  |  | 170 | 0.015 | 92000 | 44.6 | binds | no binding | no binding | no binding | no binding | no binding | no binding |  |
| B5 |  |  |  |  |  | 27 | 0.0022 | 82000 | 83.6 | binds | no binding | no binding | no binding | no binding | no binding | no binding |  |
| B6 |  |  |  |  |  | 3 | 0.00021 | 69000 | 569 | binds |  |  |  |  |  |  | binds |
